# Test: yeast display, Sf9 membrane polyspecificity reagent, FACS + sequencing; frameworks hold sequencing errors
# In short: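 Galactose-induced (36–48 hours) yeast carrying a synthetic nanobody display library were exposed to 10% biotinylated, detergent-solubilized Sf9 membrane reagent at 4 °C for 1 hour. FACS followed streptavidin microbead enrichment, using low and high (top ~1%) gates for expression (anti-HA) and reagent binding (streptavidin). Colony PCR, MiSeq 2 × 250 sequencing and CDR-length filtering followed. Labels for polyreactivity reflect the gate of origin.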
row,Sequence,polyreactivity (PSR sort gate)
1,QVQLVESGGGLVQAGGSLRLSCAASGRTFWLYAMGWYRQAPGKERELVARITRRDGSTNYADSVKGRFTISRDNAKNTVYLQMNSLKPEDTAVYYCAAGRFRYPPGAYDYWGQGIQVTVSS,high polyreactivity
2,QVQLVESGGGLVQAGGSLRLSCAASGRTFWMNAMGWYRQATGKERELVATISSSSGSTTYADSVKGRFTISRDNAKNTVYLQMNSLKPEDTAVYYCNVDDPFYSGVVEFDYWGQGTQVTVSS,low polyreactivity
3,QVQLVESGGGLVQAGGSLRLSCAASGRTFWNYAMGWYRQAPGKERELVAVIRFSDGSTYYADSVKGRFTISRDNAKNTVYLQMNSLKPEDTAVYYCADIGPRRWGSGFDYWGQGTQVTVSS,low polyreactivity
4,QVQLVESGGGLVQAGGSLRLSCAASGRTFWRNDMGWYRQAPGKERELVARISWSGGSTYYADSVKGRFTISRDNAKNTVYLQMNSLKPEDTAVYYCAKYYPGRSAFSDGNYWGQGTQVTVSS,low polyreactivity
5,QVQLVESGGGLVQAGGSLRLSCAASGRTFWRYAMGWYRQAPGKERELVARISSGGSTYYADSVKGRFTISRDNAKNTVYLQMNSLKPEDTAVYYCAVLSRHRRVPWYRYNYWGQGTQVTVSS,low polyreactivity
6,QVQLVESGGGLVQAGGSLRLSCAASGRTFWTNAMGWYRQAPGKERELVAAISYRAGSTYYADSVKGRFTISRDNAKNTVYLQMNSLKPEDTAVYYCATRAVYYYAGFDYWGQGTQVTVSS,high polyreactivity
7,QVQLVESGGGLVQAGGSLRLSCAASGRTFWVYAMGWYRQAPGKERELVAAIRRGGITNYADSVKGRFTISRDNAKNTVYLQMNSLKPEDTAVYYCAALGLWFLQFDYWGQGTQVTVSS,low polyreactivity
8,QVQLVESGGGLVQAGGSLRLSCAASGRTFWWNAMGWYRQAPGKERELVASISSGGSTNYADSVKGRFTISRDNAKKTVYLQMNSLKPEDTAVYYCARGYRWRGTVSRWSRYYQAHDYWGQGTQVTVSS,low polyreactivity
9,QVQLVESGGGLVQAGGSLRLSCAASGRTFWYNALGWYRQAPGKERELVAAISWSGGTTYYADSVKGRFTISRDNAKNTVYLQMNSLKPEDTAVYYCNAKYRGLAKYDYWGQGTQVTVSS,high polyreactivity
10,QVQLVESGGGLVQAGGSLRLSCAASGRTFWYNAMGWYRQAPGKERELVAAISSTGGRTYYADSVKGRFTISRDNAKNTVYLQMNSLKPEDTAVYYCAARQLSSHYDYWGQGTQVTVSS,low polyreactivity
11,QVQLVESGGGLVQAGGSLRLSCAASGRTFWYNTMGWYRQAPGKERELVAAISTGGSTNYADSVKGRFTISRDNAKNTVYLQMNSLIPEDTAVYYCAALIYYWSGRPRFDQARDYDYWGQGTQVTVSS,low polyreactivity
12,QVQLVESGGGLVQAGGSLRLSCAASGRTFWYYAMGWYRPAPGKERELVASISLSGSRTNYADSVKGRFTIARDNAKNTVYLQINRLKPEDTAVYYCAADNFRQFGEYDYLGQGTQVTVSS,low polyreactivity
13,QVQLVESGGGLVQAGGSLRLSCAASGRTFWYYAMGWYRQAPGKEREFVAAISWSGGSTYYADSVKGRFTISRDNAKNTVYFQMNSLKPEDTAVYYCNAGNYRDKSYYWGQGTQVTVSS,low polyreactivity
14,QVQLVESGGGLVQAGGSLRLSCAASGRTFWYYAMGWYRQAPGKERELVAAISRNGGSTYYEDSVKGRFTISRDNAKNTVYLQMNSLKPEDTAVYYCAADGWYTRKYDYWGQGTQVTVSS,high polyreactivity
15,QVQLVESGGGLVQAGGSLRLSCAASGRTFWYYAMGWYRQAPGKERELVAAISTTGSSTYYADSVKGRFTISRDNAKNTVYLQMNSLKPEDTAVYYCAADSGAQYKYLWGYDYWGQGTQVTVSS,low polyreactivity
16,QVQLVESGGGLVQAGGSLRLSCAASGRTFWYYAMGWYRQAPGKERELVAAITYRGTRTYADSVKGRFTISRDNAKNTVYLQMNSQKPEDTPVYYCAKDVGYRYSRTMDYWGQGTQVTVSS,high polyreactivity
17,QVQLVESGGGLVQAGGSLRLSCAASGRTFWYYAMGWYRQAPGKERELVAGITYGDGSTYYADSVKGRFTISRDNAKNTEYLQMNSLKPEDTAVYYCAVDLRSYWFRYGFDYWGQGTQVTVSS,low polyreactivity
18,QVQLVESGGGLVQAGGSLRLSCAASGRTFWYYDMGWYRQAPGKERELVATINNVGSTHYADSVKGRFTISRDNAKNTVYLQMNSLKPEDTAVYYCARASYGKMDYWGQGTQVTVSS,high polyreactivity
19,QVQLVESGGGLVQAGGSLRLSCAASGRTFWYYTMGWYIQAPGKERELVASITYRGGSTYYADSVKGRFTISRDNAKNTVYLQMNSLKPEDTAVYYCNARYKRYSYDYWGQGTQVTVSS,high polyreactivity
20,QVQLVESGGGLVQAGGSLRLSCAASGRTFWYYTMGWYRQAPGKERELVAAISSGGRTNYADSVKGRFTISRDNAKNTVYLQMNSLKPEDTAVYYCATSRYYKYVERDYWGQGTQVTVSS,high polyreactivity
21,QVQLVESGGGLVQAGGSLRLSCAASGRTFWYYTMGWYRQAPGKERELVASITYRGGSTYYADSVKGRFTISRDNAKNTVYLQMNSLKPEDTAVYFCNARYKRYSYDYWGHGTQVTVSS,high polyreactivity
22,QVQLVESGGGLVQAGGSLRLSCAASGRTFYANAMGWYRQAPGKERELVAAISTGGDGTYYADSVKGRFTISRDNAKKTVYLQMNSLKPEDTAVYYCAVRHRASGILYDYWGQGTQVTVSS,low polyreactivity

row,Sequence,polyreactivity (PSR sort gate)
1,QVQLVESGGGLVQAGGSLRLSCAASGRTFYANAMGWYRQAPGKERELVAAISWGGGSTYYADSVKGRFTISRDNAKNTVYLQMNSLKPEDTAVYYCNADLGRATFYQRVFIERGGYWGQGTQVTVSS,low polyreactivity
2,QVQLVESGGGLVQAGGSLRLSCAASGRTFYANAMGWYRQAPGKERELVAAITYRGGSTNYADSVKGRFTISRDNAKNTVYLQMNSLKPEDTAVYYCAKVYNPNYLWYLTYGYDYWGQGTQVTVSS,low polyreactivity
3,QVQLVESGGGLVQAGGSLRLSCAASGRTFYANVMGWYRQAPGKERELVAAITSGGSSYYADSVKGRFTISRDTAKNTVYLQMNSLKPDDTAVYYCAAGSNLNGVWFDYWGQGTQVTVSS,low polyreactivity
4,QVQLVESGGGLVQAGGSLRLSCAASGRTFYDYAMGWYRQAPGKERELVAAITSGGSTNYADSVKGRFTISRDNAKNTVYLQMNSLKPEDTAGYYCAADDFYVWGFDMNYWGQGTQVTVSS,high polyreactivity
5,QVQLVESGGGLVQAGGSLRLSCAASGRTFYDYDMGWYRKAPGKERELVAAISGGDSTYYADSVKGRFTISRDNAKNTVFLQMNSLKPEDTAVYYCAVTPRGLPYGAYLLYYWGQGTQVTVSS,low polyreactivity
6,QVQLVESGGGLVQAGGSLRLSCAASGRTFYEYAKGWYRQAPGKERELVAGITSGGSTNYADSVKGRFTISRDNEKNTVYLQMNSLKPEDTAVYYCAASYWGYEYDYWGQGTQVTVSS,low polyreactivity
7,QVQLVESGGGLVQAGGSLRLSCAASGRTFYEYAMGCYIPAPGKERELVAAITSGGTTYYADSVKGRFTISRDTAKNTVYLQMNSVKPEDTAVYYCAADRYYYYWGQGTQVTVSS,high polyreactivity
8,QVQLVESGGGLVQAGGSLRLSCAASGRTFYFNAMGWYRQAPGKERELVAAISGGGRTYYADSVKGRFTISRDNAKNTVYLQMNSLKPEDTAVYYCNVRRWYTYPLEKSNYWGQGTQVTVSS,high polyreactivity
9,QVQLVESGGGLVQAGGSLRLSCAASGRTFYFYAMGWYRQAPGKERELVAAITSRVGRTYYADSVKGRFTISRDNAKNTVYLQMNSLKPEDTAVYYCAAEGVYRMGYWGQGTQVTVSS,high polyreactivity
10,QVQLVESGGGLVQAGGSLRLSCAASGRTFYFYAMGWYRQAPGKERELVASITSSGGNTYYADSVKGRFTISRDNAKNTVYLQMNSLKPEDTAVYYCAARWFPWLQWKRYDYWGQGTQVTVSS,low polyreactivity
11,QVQLVESGGGLVQAGGSLRLSCAASGRTFYFYVMGWYRQAPGKERELVARISWSGGSTYYADSVKGRFTISRDNAKNTVYLQMNSLKPEDTAVYYCARQYKYPSSGEYDSWGQGTQVTVSS,low polyreactivity
12,QVQLVESGGGLVQAGGSLRLSCAASGRTFYGNAMGWYRQAPGKERELVAAITFRTSSTYYADSVKGRFTISRDYAKNTVYLQMNSLKPDDTAVFYCAALWIYSGWRYDYWGQGTQVTVSS,high polyreactivity
13,QVQLVESGGGLVQAGGSLRLSCAASGRTFYGNAMGWYRQAPGKERELVAGITRGGSTYYADSVKGRFTISRDNAKITVYLQMNSLKPEDTAVYYCAARAYYARFLMGYWGQVTQVTVSS,high polyreactivity
14,QVQLVESGGGLVQAGGSLRLSCAASGRTFYGYALGWYRQAPGKERELVAAISDDASTYYADSVKGRFTISRDNAKNTVYLQMNSLKPEDTAVYYCAAEPEWPYGRFDYWGQGTQVTVSS,high polyreactivity
15,QVQLVESGGGLVQAGGSLRLSCAASGRTFYGYAMGWSRQAPGKERELVAAISWTGGRTYYADSVKGRFTISRDNAKNTVFLQMNSLKPEDTAVYYCNARRRGDSGDGYIYGYWGQGTQVTVSS,high polyreactivity
16,QVQLVESGGGLVQAGGSLRLSCAASGRTFYGYAMGWYRQAPGKERELVAAISRRGGSTNYADSVKGRFTISRDNAKNSVYLQMNSLKPEDSAVYYCNANYYRTHYDYWGQGTQVTVSS,high polyreactivity
17,QVQLVESGGGLVQAGGSLRLSCAASGRTFYGYAMGWYRQAPGKERELVAAITRSGGSTYYADSVKGRFTISRDNAKNTVYLQMNSLKPEDTAVYYCAAGGQARHDNWGQGTQVTVSS,low polyreactivity
18,QVQLVESGGGLVQAGGSLRLSCAASGRTFYGYAMGWYRQAPGKERELVASIRQSAGRTYYADSVKGRFTISRDNAKNTVYLQMNSLKPEDTAVYYCAASIFLRSFYQQGNYWGQGTQVTVSS,high polyreactivity
19,QVQLVESGGGLVQAGGSLRLSCAASGRTFYGYTMGWYRQAPGKERELVAAIRTSGGSTYADSVKGRFTISRDNAKNTVYLQMNSLKPEDTAVYYCAAPRVVYYGTAPAYRYDYWGQGTQVTVSS,high polyreactivity
20,QVQLVESGGGLVQAGGSLRLSCAASGRTFYHYAMGWYRQAPGKERELVATITSSGGNTYYADSVKGRFTISRDNSKNTVYLQMNSLKPEDTEVYYCAADWFVYQYSFGSSEYYYWGQGTQVTVSS,low polyreactivity
21,QVQLVESGGGLVQAGGSLRLSCAASGRTFYIYAMGWYRQAPGKERELVAAITWSGGSSTYYADSVKGRFTISRDNAKNTVYLQMNSLKPEDTAVYYCAAETHYYWYEQYDYWGQGTQVTVSS,high polyreactivity

# Reference: the nanobody polyreactivity screen of Harvey et al. (2022)
